Target: T1, myc-tagged NiV G (full-length, from lysates of infected cells) (Nipah virus, UniProt Q9IH62 1-602)
T1 sequence: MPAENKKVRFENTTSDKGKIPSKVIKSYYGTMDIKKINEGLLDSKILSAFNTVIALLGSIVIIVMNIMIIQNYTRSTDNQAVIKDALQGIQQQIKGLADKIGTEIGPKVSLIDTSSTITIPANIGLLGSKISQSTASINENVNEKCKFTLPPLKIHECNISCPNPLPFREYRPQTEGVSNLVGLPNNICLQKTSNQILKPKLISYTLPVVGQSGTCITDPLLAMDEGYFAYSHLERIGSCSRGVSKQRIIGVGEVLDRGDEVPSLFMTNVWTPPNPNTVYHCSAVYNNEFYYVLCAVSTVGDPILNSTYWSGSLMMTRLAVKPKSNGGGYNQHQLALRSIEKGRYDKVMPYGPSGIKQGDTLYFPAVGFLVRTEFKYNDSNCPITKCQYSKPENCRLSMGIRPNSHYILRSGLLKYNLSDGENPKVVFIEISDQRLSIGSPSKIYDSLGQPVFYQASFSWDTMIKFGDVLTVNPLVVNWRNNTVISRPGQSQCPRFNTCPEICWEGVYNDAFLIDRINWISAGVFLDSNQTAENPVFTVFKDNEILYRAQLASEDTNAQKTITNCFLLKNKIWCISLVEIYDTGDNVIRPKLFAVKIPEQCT
Assay: immunoprecipitation of 35S-labelled myc-tagged G from cell lysate

B1: Fab m102 (Fab, V domains shown)
VH: EVQLVQSGAEVKKPGSSVKVSCKSSGGTFSNYAINWVRQAPGQGLEWMGGIIPILGIANYAQKFQGRVTITTDESTSTAYMELSSLRSEDTAVYYCARGWGREQLAPHPSQYYYYYYGMDVWGQGTTVTVSS
VL: EIVLTQSPGTLSLSPGERATLSCRASQSITNGRLAWYQQKPGQAPRLLIYGVSSRASGIPERFSGSGSGTDFTLTISRLEPEDFAVYYCQQYGSSVLFGPGTKVDIKR
Question: Does B1 bind?
Answer: binds

Reference: US20090214428A1 (HENRY M JACKSON FOUNDATION FOR THE ADVANCEMENT OF MILITARY …, published 2009)
